From the nanobody polyreactivity screen of Harvey et al. (2022)

Assay: yeast display, Sf9 membrane polyspecificity reagent, FACS + sequencing; frameworks hold sequencing errors
Summary of the method: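 Galactose induction of a Saccharomyces cerevisiae BJ5465 synthetic nanobody display library ran 36–48 hours. The cells were then stained for 1 hour at 4 °C with 10% biotinylated, detergent-solubilized Sf9 membrane reagent, pulled down on streptavidin microbeads and FACS-sorted into low and high (top ~1%) gates on expression and reagent-binding fluorescence. Labels for polyreactivity follow the gate of origin.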

| Sequence | polyreactivity (PSR sort gate) |
| --- | --- |
| QVQLVESGGGLVEAGGTLRLSCAASGSIFPINAMGWYRQAPGKQWELVAAITVSDGRTYYADSVKGRFTISRDTAKNTVYLQMNSLKPEDTAVYYCAKSSHAREYYYWGQGNQVTVSS | low polyreactivity |
| QVQLVESGGGLVQAGGSLRLSCAASGNTYSYNAMGWYRQAPGKEREFVASISRRGGRTNYADSVKGRFTISRDNAKNTVYLQMNSLKPEDTAVYYCAATTVPLGDYWGQVTQVTVSS | high polyreactivity |
| QVQLVESGGGLVQAGGSLRLSCAASGRIFVPYAMGWYRQAPGKERELVAVISRGGSTYYADSVKGRFTISRDNAKNTVYLQMNSLKPEDTAVYYCAARGVNRQGFNYWGQGTQVTVSS | high polyreactivity |
| QVQLVESGGGLVQAGGSLRLSCAASGSTFVANAMGWYRQAPGKERELVAAISFNRGGNTYYADSVKGRFTISRDNAKNTVYLQMNSLKPEDTAVYYCAARNSYGNWRYYYWGQGTQVTVSS | high polyreactivity |
| QVQLVESGGCLVQAGGSLRLSCAASGSTFDYYAMGWYTQAPGKERELVAAISSSGSSTYYADSVKGRFTISRDNAKNTVYLQMNSLKPEDTAVYYCAKGTNYRDDYWGQGTQVTVSS | low polyreactivity |
| QVQLVESGGGLVQAGGSLRLSCAASGRIFSTYVMGWYRQAPGKERELVAAITRGGSTNYADSVKGRFTISRDNAKNTVYLQMNSLKPEDTAVYYCNAQRRGTYYWGQATQVTVSS | high polyreactivity |
| QVQLVESGGGLVQAGGSLRLSCAASGSTFTGYVLGWYRQAPGKERELVAAITSSVDGTYYADSVKGRFTISRDIAKNTVYLQMNSLKPEDTAVYYCAADLWKGVYPSYDYWGQGTQVTVSS | low polyreactivity |
| QDQLVESGGGLVQAGGSLRLSCAASGSTFLINAMGWYRQAPGKERELVAAISDSGGSTHYADSVKGRFTISRDNAKNTVYLEMNSLKPEDTAVYYCAATIPTTLILYGYWGQGTQVTVSS | low polyreactivity |
| QVQHEESGGGLDQAGGSLRLSSASSGTIFYGCYMGWYRQARGKEREMVATISWSSGSSTYYADSVKGRFTISRDNANNSVYLQMNILKPEDTAVYYCAVDFAIGYRYLCRVDYWGQGTQVTVSS | low polyreactivity |
| QVQLVESGGGLVQAGGSLRLSCAASGFTLYRYAMGWYRQAPGKERELVAAISKRGATSYYADSVKGRFTISRDNAKNTVYLQMNSLKPEDTAVYYCAATISRAYKPVKGHYYLGMDYWGQGTQVTVSS | high polyreactivity |
| QVQLVESGGGLVQAGGSLRLSCAASGSIFDIYAMGWYRQAPGKERELVAAISLSAGSTYYADSVKGRFTISRDNAKNTVYLQMNSLKPEDTAVYYCAKDFFEHSPVSHTYSSSKYDYWGQGTQVTVSS | low polyreactivity |
| QVQHVESGGGLVQAGGSLRLSCAASGFIFSNNAMGRYRQAPGKERELVAAITSSGGRTYYADSVKGRFTISRDNAKNTVYLQMNSLKPEDTAVYYCAAVWRTSVWTKYGYWGQGTQVTVSS | high polyreactivity |
| QVQLVESGGGLVQAGGSLRLSCAASGFISKYYAMGRYRQAPGKERELVASISRDGSTSYADSVKGRFTISRDNAKNTVYLQMNSLKPEDTAVYYCAAPSYRTRYYYWGQGTQVTVSS | high polyreactivity |
| QVQLVESGGGLVQAGGSLRLSCAASGFILPNYTMGWYRQAPGKERELVAAISRGGSTNYADSVKGRFTISRDNAKNTVYLQMNSLKPEDTAVYYCAVDAWTGESYWEHYYWGQGTQVTVSS | low polyreactivity |
| QVQLVESWGGLVQAGGSLRLSSPASGFTFFYYAMGWYRPAPGKERELVAAITSGGSTKNADSVKGRFTISRDNAKNSVYLQMNSLKPEDTAVYYCAARVRISGSPRILYNYWGQGTQVTVSS | high polyreactivity |
| QVQLVESGGGLVQAGGSLRLSCAASGSTFQYYAMGWYRQAPGKERELVAAISYRGSTYYADSVKGRFTISRDNAKNTVYLQMNSLKPEDTAVYYCAAVNRPWYSFGYGYWGQGTQVTVSS | high polyreactivity |

| Sequence | polyreactivity (PSR sort gate) |
| --- | --- |
| QVQLVESGGGLVQAGGSLRLSCAASGFTFQNYAMGWYSQAPGKERELVAAITYSGGSTYYADSVKGRFTISRDNAKNPVYLQMHSLKPEDTAVYYCAKKASYWWGYEYWGQGTQVTVSS | low polyreactivity |
| QVQLVESGGGLVQAGGSLRLSSAASGRIFWPNTIGWYRQAPGKERELVAAISWSGGSTYYADSVKGRFTISRDNAKNTVYLQMNSLIPEDTAVYYFNARYPNTRKYDYWGQGTQVTVSS | high polyreactivity |
| QVQLVESGGGLVQAGGSLRLSCAASGLIFNWNDMGWYRQAPGKERELVAAISGDGGITYYADSVKGRFTISRDNAKNTVYLQMNSLKPEDTAVYYCNAGFTWGDWYDYWGQGTQVTVSS | low polyreactivity |
| QVQLVESGGGLVQAGGSLRLSCAASGRTLHANTMGMYRQAPGKERELVAAITRGGGNTYYADSVKGRFTISRDNAKNTVYLQMNSLKPEDTAVYYCNADVSGYLWYEYDYWGQGTQVTVSS | low polyreactivity |
| QVQLVESGGGLVQAGGSLRLSCAASGRIGKYAMGWYRQAPGKERELVATISSTGTTNYADSVKGRFTISRDNAKNTVYLQMNSLKPEDTAVYYCAGRWEYVGYRRRYYRFDYWGQGTQVTVSS | high polyreactivity |
| QVQLVESGGGLVQAGGSLRLSCAASGSTFRSYDMGWYRQAPGKERELVAASSSGGSTNYADSVKGRFTISRDNAKNTVYLQMNSLKPEDTAVYYCNAEYPYYWFKYDYWGQGTQVTVSS | low polyreactivity |
| QVQLVESGGGLVQAGGSLRVSCAASGSTFPPSAMGWYREAPGKERELGAAIDWSDGTTYYADSVKGRFTISRDYAKNTVYLQMNSLKPEDTAVYYCAADPVLDEYDYWGQGTQVTVSS | low polyreactivity |
| QVQLVESGGGLVQAGGSLRLSCAASGRTFLVNAMGRYREAPGKVREFVAAITSRSGRTNYADSVKGRFTISRDNAKNTLYLQMNRLQPEDTAVYYCNAEGYTVKYWYSRYDYWGQGTQVTVSS | high polyreactivity |
| QVQLVESGGGLVQAGGSLRLGCAASGSTLYSYAMGWYRQAPGKERELVASISSGASTYYADSVKGRFTISRDNAKNTVYLQMNSLKPEDTAVYYCNADAGSYHTGWVTPWGSDEYDYWGQGTQVTVSS | low polyreactivity |
| QVQLVESGGGLVQAGGSLRLSCAASGSTFYYYTMGWYRQAPGKERELVAVISRDGRTNYADSVKGRFTISRDNAKNTVYVQMNSLKPEDTAVYYCNADYYWNGVYHYDYWGQGTQVTVSS | low polyreactivity |
| QVQLVESGGGLVQAGGSLRLSCAASGSTFFKYAMGWYRQAPGKERELVAAISYSGGSTYYADSVKGRFTISRDNAKNTVYLQMNSLKPVDTAVYYCAARVQNRYRPYYYWGQGTQVTVSS | high polyreactivity |
| QVQLVESGGALVQAGGSLRLSCAASGSIFDHNAMGWYRQAPGKERELVAAITWSGTSTYYADSVKGRFTISRDNAKNTVYLQMNSLIPEETAVYYCAAYLYGAVRAYPYRWGRYNYWGQGTQVTVSS | high polyreactivity |
| QVQLVESGGGLVQAGGSLRLSCAASGYIFKYYAMGWYRQAPGKERELVAAISRSGGSTYYADSVKGRFTISRDNAKNTVYLQMNSLNPEDTAVYYCAADSYYYQGYRRYNYDYWGQGTQVTVSS | high polyreactivity |
| QVQLVESGGALVQAGGSLRLICAASGSILYAYAMGWYRQAPGKERELVATNSYRGDRTRYADSVKGRFTISRDNAKNTVYLQMNSLKPEDTAVYSCAAKRKTSVPPVVKWSGYWGQGTQVTVSS | high polyreactivity |
| QVQLVESGGGLVQAGGSLRLSCAASGGTFPQNVMGWYRPAPGKERELVAAISSGGSTYYADSVKVRFTISRDNAKNTVYFQMNSLIPEDTGVYYCAKRRWYRYDYWGQGTQVTVSS | high polyreactivity |
